Entries after “also recorded” stand apart in the source; their conditions may differ.
B1: trypsin (protein, UniProt P00760 24-246, looked up)
Serine protease 1: IVGGYTCGANTVPYQVSLNSGYHFCGGSLINSQWVVSAAHCYKSGIQVRLGEDNINVVEGNEQFISASKSIVHPSYNSNTLNNDIMLIKLKSAASLNSRVASISLPTSCASAGTQCLISGWGNTKSSGTSYPDVLKCLKAPILSDSSCKSAYPGQITSNMFCAGYLEGGKDSCQGDSGGPVVCSGKLQGIVSWGSGCAQKNKPGVYTKVCNYVSWIKQTIASN
notes: other (inert) protein used as control in the precipitation assay
B2: GAP65: approximately 65 kDa negatively charged glycoprotein from Cherax quadricarinatus gastrolith, SEQ ID NO:1; used as GAP65 enriched fraction (protein, listed as Cherax quadricarinatus)
chain: MIRRVTTPLLALLLAGWVVAQTTDMDPEQYCARRDDEYFRKDFGDPAEFASDYRANCGVYYRCVPAPAGKRSISASQCQSELFFDVQQQICERKSKVTNCEQIDKEHPPQPFWPLREGEESQCKSGEIMCGSGECLPQHRFCDENSDCADGSDENICTPDKDPNRADVCEPRTCLWSQGCFCSVDGTRIPGDLTVDQTPQMITITFTGAINERNFRIFQDVFKDTVKHKGNDCTPKGTFFISHGFSNYSAIQELNRVGHEIAVSSITNNDNPDYWSKLSALDYEAEMDGARLIIEKFANITANEVLGIRVPKQRVGGNRQFRMMVDWGFLYDSSISAPMGRLPLWPYTLMHRMPHKCLGNDQNCPSQNFTVWEMVINEMDRRDDPQFDERLTGCHFVDQCANIQSPEQFRAFLDNNLARHYRTNRAPLGLHFTSGYFETRRDFLREFVKWVRETALSGDYFFVTMQQVINWMEAPTELTAINNFQEWKGKCEVKGQPYCSLPNPCPKKVPRIFPNEEEMFLYTCMECPNTYPWLGDPHGNGFLDIPDF
modifications: glycosylated
notes: used as GAP65 enriched fraction

Key:
[1] = In vitro calcium carbonate precipitation assay testing the stabilization of ACC; assay type: physicochemical; details: for effect on calcium carbonate precipitation (polymorph obtained): CaCl2 + Na2CO3 solution, SEM, Raman
Description: Electron microscope images of the precipitates distinctly indicated different polymorph composition of calcium carbonate for the precipitation in the presence/absence of GAP65-enriched fractions (FIG. 7).
FIG. 7 presents precipitation results of calcium carbonate in the presence of GAP65 and in the presence of other protein (trypsin). SEM images in FIG. 7A indicate the distinct polymorph of calcium carbonate in each treatment.
(§1) 100 μl of 1M CaCl2 was added to 10 ml double distilled water (final concentration: 10 mM). 80 μl from the protein extraction solution (1.2 μg/μl) were added (final concentration ˜10 μg/ml). 100 μl of 1M Na2CO3 (final concentration: 10 mM) was added following an intensive shaking. The vial was centrifuged for 5 min at 4000 rpm, the precipitate was smeared over a glass slide and instantly dried with air flow. […] The observations were confirmed by Raman spectroscopy.
The peak at 560 is attributed to the glass substrate. […] Specific expression of GAP21, GAP22 and GAP65 in several target tissues was checked by means of RT-PCR, similarly as described in Example 2. GAP21 and GAP65 expressions were found in both cuticle related tissues. GAP22 expression was found only in the gastrolith epithelial disc. The cDNA sequences of the corresponding genes were obtained and their deduced proteins were found (FIGS. 13-15). […] GAP12, GAP21 and GAP22, on the other hand, show no significant similarity to any known domain.

[2] = Stability of ACC at room temperature by Raman spectroscopy; assay type: physicochemical
Description: The precipitated calcium carbonate was checked over long periods for the amorphous/crystalline state.
as §1

| Molecule | effect on calcium carbonate precipitation (polymorph obtained) [1] | ACC share of the total CaCO3 precipitated ([1]; 10 mM CaCl2, 10 mM Na2CO3, ~10 μg/ml protein, estimated) | time ACC precipitated with GAP65 remained stable [2] |
| --- | --- | --- | --- |
| B1 | rapid crystallization | – | – |
| B2 | amorphous CaCO3; also recorded: deposition of an amorphous form (ACC) | at least 50% | at least 1 months |

— patent US8802160B2 (Amorphical Ltd., priority 2007, dated 2014)
